Test results from PMC5658042 (Methods (San Diego, Calif.), 2017).

Target: Drosophila melanogaster Dicer-2 (dmDcr-2), OSF tag removed (Drosophila melanogaster, UniProt A1ZAW0 1-1722)
Test: cross-linking

Chain of Drosophila melanogaster Dicer-2 (dmDcr-2), OSF tag removed (A1ZAW0 whole entry): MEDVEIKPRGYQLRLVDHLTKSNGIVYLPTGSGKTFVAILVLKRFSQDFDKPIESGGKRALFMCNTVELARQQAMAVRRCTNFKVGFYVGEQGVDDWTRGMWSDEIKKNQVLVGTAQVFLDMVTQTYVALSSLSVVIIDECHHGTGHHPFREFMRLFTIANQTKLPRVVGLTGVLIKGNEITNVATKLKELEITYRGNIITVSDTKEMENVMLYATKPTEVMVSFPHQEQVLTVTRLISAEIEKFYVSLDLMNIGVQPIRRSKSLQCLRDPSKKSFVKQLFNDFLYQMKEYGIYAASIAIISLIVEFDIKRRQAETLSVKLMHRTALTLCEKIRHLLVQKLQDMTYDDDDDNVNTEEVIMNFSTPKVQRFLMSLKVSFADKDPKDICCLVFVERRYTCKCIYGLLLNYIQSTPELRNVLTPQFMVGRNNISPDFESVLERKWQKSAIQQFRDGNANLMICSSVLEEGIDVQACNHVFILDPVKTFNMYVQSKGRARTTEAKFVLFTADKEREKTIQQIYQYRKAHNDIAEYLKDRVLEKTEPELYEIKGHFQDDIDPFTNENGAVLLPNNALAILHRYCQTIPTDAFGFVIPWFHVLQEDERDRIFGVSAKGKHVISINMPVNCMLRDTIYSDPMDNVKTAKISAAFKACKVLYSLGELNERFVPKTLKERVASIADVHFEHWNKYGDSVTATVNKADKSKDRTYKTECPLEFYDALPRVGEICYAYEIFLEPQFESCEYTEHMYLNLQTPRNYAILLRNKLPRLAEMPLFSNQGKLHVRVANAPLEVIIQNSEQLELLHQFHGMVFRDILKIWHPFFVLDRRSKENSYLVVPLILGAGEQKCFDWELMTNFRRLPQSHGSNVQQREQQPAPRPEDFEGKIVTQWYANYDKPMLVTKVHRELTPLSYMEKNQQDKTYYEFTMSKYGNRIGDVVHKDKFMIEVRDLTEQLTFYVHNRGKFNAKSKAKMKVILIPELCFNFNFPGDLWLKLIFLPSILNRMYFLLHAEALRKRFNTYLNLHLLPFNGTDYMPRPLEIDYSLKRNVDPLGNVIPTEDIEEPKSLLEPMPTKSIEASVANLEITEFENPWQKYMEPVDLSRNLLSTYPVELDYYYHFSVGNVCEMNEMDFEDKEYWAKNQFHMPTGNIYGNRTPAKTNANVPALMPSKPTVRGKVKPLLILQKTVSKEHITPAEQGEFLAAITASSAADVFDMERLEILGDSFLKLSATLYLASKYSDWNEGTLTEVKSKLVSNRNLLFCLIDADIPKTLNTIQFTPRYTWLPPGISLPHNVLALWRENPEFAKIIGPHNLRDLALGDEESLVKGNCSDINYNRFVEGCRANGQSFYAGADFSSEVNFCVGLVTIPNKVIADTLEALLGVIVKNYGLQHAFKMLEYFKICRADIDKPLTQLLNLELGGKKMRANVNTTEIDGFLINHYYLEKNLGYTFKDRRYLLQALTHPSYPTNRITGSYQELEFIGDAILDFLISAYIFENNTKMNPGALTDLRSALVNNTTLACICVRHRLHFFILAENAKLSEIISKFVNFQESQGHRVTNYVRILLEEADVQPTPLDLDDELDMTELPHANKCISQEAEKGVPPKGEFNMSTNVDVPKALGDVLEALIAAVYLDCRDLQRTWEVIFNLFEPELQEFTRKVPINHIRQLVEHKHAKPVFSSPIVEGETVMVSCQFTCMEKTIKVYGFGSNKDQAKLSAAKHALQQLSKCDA

B1: Loquacious-PD (Loqs-PD), OSF tag removed (natural protein, Drosophila melanogaster, UniProt Q9VJY9-4 1-359, looked up)
chain: MDQENFHGSSLPQQLQNLHIQPQQASPNPVQTGFAPRRHYNNLVGLGNGNAVSGSPVKGAPLGQRHVKLKKEKISAQVAQLSQPGQLQLSDVGDPALAGGSGLQGGVGLMGVILPSDEALKFVSETDANGLAMKTPVSILQELLSRRGITPGYELVQIEGAIHEPTFRFRVSFKDKDTPFTAMGAGRSKKEAKHAAARALIDKLIGAQLPESPSSSAGPSVTGLTVAGSGGDGNANATGGGDASDKTVGNPIGWLQEMCMQRRWPPPSYETETEVGLPHERLFTIACSILNYREMGKGKSKKIAKRLAAHRMWMRLQETPIDSGKISDSICGELEGEVSIIQDIDRYEQVSKDFEFIKI
modifications: mono-phosphorylated (intact-mass ESI/MS shows a phospho and a dephosphorylated species); putative site assigned to the motif 213-SPSSS-217
  stoichiometry N: 1
